Reference: US20240252686A1 (SKYLINE THERAPEUTICS, published 2024)
Each block holds one binder with its values, some of them ahead of it.

Legend:
[1] = target: T1, VEGFA-165 (R&D systems 293-VE/CF) (human, UniProt P15692-4 27-191); test: ELISA as in Example 5, VEGFA-165 coated, anti-HA detection
T1 construct: Coated on ELISA plates or added in solution to reporter cells; also called human VEGF; human VEGFA
Protocol: (§1) After removing the blocker, the primary antibody (rabbit anti-HA, Thermo, PA1-985) was diluted (1:5000) with the blocking buffer (StartingBlock™ T20 (TBS) Blocking Buffer, Catalog number: 37543 of Thermo Fisher Scientific), and added to ELISA plate (50 μl/well), followed by the incubation at RT for 1h with 250 rpm gentle shaking. After washing with 1×TBST buffer for 3 times, the secondary antibody (Goat anti-rabbit-HRP, Invitrogen, 3146) was diluted (1:5000) with the blocking buffer, and added to the ELISA plate (50 μl/well), followed by the incubation at RT for 1h with gentle shaking. After washing the ELISA plate with 1×TBST for 3 times, the TMB substrate (Thermo Scientific, REF34028) was added the plate (50 μl/well); after the incubation at RT for 5-10 min, 2M H₂SO₄ was added to stop the TMB reaction. OD450 and OD525 of the ELISA plate were detected.

[2] = target: T1, VEGFA-165 (R&D systems 293-VE/CF); test: competitive ELISA as in Example 7: inhibition of VEGFR2/KDR Fc binding to coated VEGFA-165
Protocol: After removing the blocker, the detection antibody (rabbit anti-human FC HRP, Thermo) diluted 1:5000 with the blocking buffer, and added 50 μl/well incubated at RT for 1h with 250 rpm gentle shaking. After washing the ELISA plate with 1×TBST for 3 times, the TMB substrate was added the plate (50 μl/well); after the incubation at RT for 5-10 min, 2M H₂SO₄ was added to stop the TMB reaction. OD450 and OD525 of the ELISA plate were detected.
The mono-valent and bi-valent Nb24s in the supernatants were quantified by western blot as described in Example 2, and diluted to a series of concentrations.

[3] = target: T1, VEGFA-165 (R&D systems 293-VE/CF); test: ELISA, VEGFA-165 coated, supernatant, anti-HA detection
Protocol: as §1

T1 sequence (P15692 other isoform, or with tags, fused parts or gaps limits assumed): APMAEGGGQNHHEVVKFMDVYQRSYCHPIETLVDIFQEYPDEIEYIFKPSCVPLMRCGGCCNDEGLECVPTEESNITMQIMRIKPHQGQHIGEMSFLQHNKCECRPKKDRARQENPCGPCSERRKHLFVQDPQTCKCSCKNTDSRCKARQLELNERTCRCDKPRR

B1: bi-valent Nb24, product expressed by pGCB108-ITR130-AMDF1Nb24-5-(G4S)4-Nb24-5-HA (VHH)
chain: EVQLQESGGGLVQPGGSLRLSCTASGFTFDDPDVGWFRQAPGNECELVSTISKDGSTYYTDSVKGRFTISRDYAKNTVYLQMNSLRAEDTAVYYCAADSNPIAPIRTCLGWYNYWGQGTLVTVSSGGGGSGGGGSGGGGSGGGGSEVQLQESGGGLVQPGGSLRLSCTASGFTFDDPDVGWFRQAPGNECELVSTISKDGSTYYTDSVKGRFTISRDYAKNTVYLQMNSLRAEDTAVYYCAADSNPIAPIRTCLGWYNYWGQGTLVTVSSYPYDVPDYA
notes: Two copies of Nb24 in a single polypeptide; supernatant of transfected Expi293 cells; also called 24-5-G4S4-24-5
EC50 [1]: 464 nM

B2: mono-valent Nb24 with HA tag, product expressed by pGCB108-ITR130-AMDF1huNb24-5-hGHpA (VHH)
VHH: EVQLQESGGGLVQPGGSLRLSCTASGFTFDDPDVGWFRQAPGNECELVSTISKDGSTYYTDSVKGRFTISRDYAKNTVYLQMNSLRAEDTAVYYCAADSNPIAPIRTCLGWYNYWGQGTLVTVSS
notes: Used as supernatant of transfected Expi293 cells, detected by anti-HA; The junction between Nb24 and the HA tag is not spelled out; also called HuNb24-5-HA; Nb24-5-HA
IC50 [2]: 132 nM

B4: Beovu-scFv with HA tag, product expressed by pGCB108-ITR130-AMDF1-Beovu-scFv (scFv)
scFv: EIVMTQSPSTLSASVGDRVIITCQASEIIHSWLAWYQQKPGKAPKLLIYLASTLASGVPSRFSGSGSGAEFTLTISSLQPDDFATYYCQNVYLASTNGANFGQGTKLTVLGGGGGSGGGGSGGGGSGGGGSEVQLVESGGGLVQPGGSLRLSCTASGFSLTDYYYMTWVRQAPGKGLEWVGFIDPDDDPYYATWAKGRFTISRDNSKNTLYLQMNSLRAEDTAVYYCAGGDHNSGWGLDIWGQGTLVTVSSYPYDVPDYA
notes: Benchmark anti-VEGF scFv; supernatant of transfected Expi293 cells; also called Beovu-scFv-HA; F1F3-HA
binding result [3]: binds

B6: bi-valent Nb24, product expressed by pGCB108-ITR130-AMDF1Nb24-5-(G4S)2-Nb24-7-HA (VHH)
chain: EVQLQESGGGLVQPGGSLRLSCTASGFTFDDPDVGWFRQAPGNECELVSTISKDGSTYYTDSVKGRFTISRDYAKNTVYLQMNSLRAEDTAVYYCAADSNPIAPIRTCLGWYNYWGQGTLVTVSSGGGGSGGGGSEVQLQESGGGLVQPGGSLRLSCTASGFTFDDPDVGWFRQAPGNECELVSTISKDGSTYYTDSVKGRFTISRDYAKNTVYLQMNSLRAEDTAVYYCAADSNPIAPIRTCLGWYNYWGQGTLVTVSSYPYDVPDYA
notes: also called 24-5-G4S2-24-7
IC50 [2]: 25.6 nM
fold better IC50 than mono-valent Nb24 [2]: 5 fold

B7: bi-valent Nb24, product expressed by pGCB108-ITR130-AMDF1Nb24-5-(G4S)2-Nb24-5-HA (VHH)
chain: B6 chain
notes: Two copies of Nb24 in a single polypeptide; supernatant of transfected Expi293 cells; also called 24-5-G4S2-24-5
EC50 [1]: 376 nM

Results, then the binder that gave them:

EC50 [1]: 400 nM
B3: bi-valent Nb24, product expressed by pGCB108-ITR130-AMDF1Nb24-5-(G4S)1-Nb24-5-HA (VHH)
chain: EVQLQESGGGLVQPGGSLRLSCTASGFTFDDPDVGWFRQAPGNECELVSTISKDGSTYYTDSVKGRFTISRDYAKNTVYLQMNSLRAEDTAVYYCAADSNPIAPIRTCLGWYNYWGQGTLVTVSSGGGGSEVQLQESGGGLVQPGGSLRLSCTASGFTFDDPDVGWFRQAPGNECELVSTISKDGSTYYTDSVKGRFTISRDYAKNTVYLQMNSLRAEDTAVYYCAADSNPIAPIRTCLGWYNYWGQGTLVTVSSYPYDVPDYA
notes: Two copies of Nb24 in a single polypeptide; supernatant of transfected Expi293 cells; also called 24-5-G4S1-24-5

EC50 [1]: 346 nM
B5: bi-valent Nb24, product expressed by pGCB108-ITR130-AMDF1Nb24-5-(G4S)3-Nb24-5-HA (VHH)
chain: EVQLQESGGGLVQPGGSLRLSCTASGFTFDDPDVGWFRQAPGNECELVSTISKDGSTYYTDSVKGRFTISRDYAKNTVYLQMNSLRAEDTAVYYCAADSNPIAPIRTCLGWYNYWGQGTLVTVSSGGGGSGGGGSGGGGSEVQLQESGGGLVQPGGSLRLSCTASGFTFDDPDVGWFRQAPGNECELVSTISKDGSTYYTDSVKGRFTISRDYAKNTVYLQMNSLRAEDTAVYYCAADSNPIAPIRTCLGWYNYWGQGTLVTVSSYPYDVPDYA
notes: Two copies of Nb24 in a single polypeptide; supernatant of transfected Expi293 cells; also called 24-5-G4S3-24-5
